Assay results from patent US20090081724A1 (BIONOMICS, published 2009).

Biological target: AD-CaM (Calmodulin, encoded by the CALM2 gene, fused to the activation domain) (human, UniProt P0DP24 1-149)
Test: yeast two-hybrid, HIS3 and LacZ reporters

- binding result: no binding
B1: DB-Q2C R353G mutant (other, not shown: small tags and cut ends)
chain: KVQEQHRQKHFEKRRNPAAGLIQSAWRFYATNLSGTDLHSTWQYYERTVTVPMYSSQTQTYGASRLIPPLNQLELLRNLKSKSGLAFRKDPPPEPSPSQKVSLKDRVFSSPRGVAAKGKGSPQAQTVRRSPSADQSLEDSPSKVPKSWSFGDRSRARQAFRIKGAASRQNSEEASLPGEDIVDDKSCPCEFVTEDLTPGLKVSIRAVCVMRFLVSKRKFKESLRPYDVMDVIEQYSAGHLDMLSRIKSLQSRVDQIVGRGPAITDKDRTKGPAEAELPEDPSMMGRLGKVEKQVLSMEKKLDFLVNIYMQRMGIPPTETEAYFGAKEPEPAPPYHSPEDSREHVDRHGCIVKIVRSSSSTGQKNFSAPPAAPPVQCPPSTSWQPQSHPRQGHGTSPVGDHGSLVRIPPPPAHERSLSAYGGGNRASMEFLRQEDTPGCRPPEGTLRDSDTSISIPSVDHEELERSFSGFSISQSKENLDALNSCYAAVAPCAKVRPYIAEGESDTDSDLCTPCGPPPRSATGEGPFGDVGWAGPRK
notes: Only the intracellular C-terminal region stood in the bait, made with the same primers as the wt construct; also called R353G KCNQ2 mutant
